Key:
[1] = target: T1, human serum amyloid A1 (SAA1) (human, UniProt P0DJI8 19-122); experiment: cell-based or functional assay
T1 sequence (looked up): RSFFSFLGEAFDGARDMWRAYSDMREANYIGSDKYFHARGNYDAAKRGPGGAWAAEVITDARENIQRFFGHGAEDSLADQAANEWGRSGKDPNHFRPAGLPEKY

[2] = target: T1, human serum amyloid A1 (SAA1); experiment: Kd calculated from competitive binding curves (competitive peptide 0.625-80 nM against SAA1 at 150 ng/ml), NFκB-luciferase reporter cell readout
Method: Raw 264.7-NFκB-Luc cells were seeded at a density of 60,000 cells in 40 μl media/well in a 96-well plate. The plate was placed at 37° C. in a 5% CO₂ incubator overnight to allow cells to adhere. 5 μL of SAA1 antigen solution (150 ng/ml) was added to each well. 10 μL of the competitive antigen standard solution was added to the respective wells. 10 μL of the purified antibody (18A3-S1-F) solution was added to each well.
The plate was incubated at 37° C. in a 5% CO₂ incubator for 2 hours to allow binding between the antibody and antigens. 10 μL of the viability dye (i.e., the Cell Titer Fluor reagent; Promega) was added, and the plate was rocked for 5 minutes and incubated at 37° C. in a 5% CO₂ incubator for 30 minutes. Then […] reading was taken with 7-amino-4-trifluoromethyl-coumarin (AFC) (excitation 405 nm/emission […]). After 3 hours, 1:1 Bright Glo Luciferase reagent (Promega) was added, and the plate was rocked for 5 minutes in dark (covered with foil) before the reading was taken.
The dissociation constant (Kd) was calculated from the competitive binding curves (FIG. 4E). The lower the Kd value, the higher the binding affinity of the antibody.

- EC50 (half-maximal inhibition of SAA1-induced NFκβ activation, reporter assay) [1]: 2.55 nM
- Kd [2]: 0.94 to 1.12 nM
B1: murine anti-SAA1 18A3 antibody (antibody, V domains shown)
VH: DVQLVESGGGLVQSGGSRKLSCAASGFTFSRFGMHWVRQAPEKGLEWVAYISRGSTKIYYADTVKGRFTISRDNPRNTLFLQMTSLRSEDTAMYYCARSLIYYDYDGFGYWGQGTLVTVSA
VL: DVLMTQTPLSLPLSLGDQASISCRSSQSIVHSNGNTYLEWYLQKPGQSPKLLIYKVSNRFSGVPDRFSGSGSGTDFTLKISRVEAEDLGVYYCFQGSHVPPTFGGGTKLEIK
notes: Murine hybridoma monoclonal antibody; Tested as hybridoma supernatant or as purified antibody from subclone 18A3-S1-F / 18A3-S1; also called 18A3-S1-F; 18A3-S1

Reference: patent US20260176335A1 (TRUSTEES OF COLUMBIA UNIVERSITY IN THE CITY OF NEW YORK, published 2026)
